Experimental data as given in patent US20190153097A1 (AGENCY FOR SCIENCE TECHNOLOGY AND RESEARCH, published 2019).

Biological target: T1, human CTLA-4 (human, UniProt P16410 36-161, limits assumed)
T1 construct: Soluble protein, construct not described; also called huCTLA-4; CD152
Experiment: blocking ELISA: CD80 coated, antibody pre-incubated with human CTLA-4, binding of CTLA-4 to CD80 detected

T1 sequence (P16410 36-161 limits assumed): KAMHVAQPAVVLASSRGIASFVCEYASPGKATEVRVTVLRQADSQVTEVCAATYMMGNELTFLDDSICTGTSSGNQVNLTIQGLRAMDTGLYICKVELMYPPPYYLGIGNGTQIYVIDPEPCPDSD

IC50 (read off the curve): ~2 nM
B1: L3D10 (commercial mouse anti-human CTLA-4 IgG1) (antibody, V domains shown)
VH: QVQLKESGPGLVAPSQSLSITCTVSGFSLTSYGLSWVRQPPGKGLEWLGVIWYDGNTNFHSALISRLTISKDNSKSQVFLELNSLQTDDTATYYCAKTEGHYYGSNYGYYALDYWGQGTSVTVSS
VL: DIQMTQSPASLSVSVGETVTITCRASENIYSNLAWYQQKQGKSPQLLVYAATNLADGVPSRFSGSGSGTQYSLKINSLQSEDFGTYFCQHLWGTPYTFGGGTKLEIK
